Experimental data: US12138415B2, “Increased bioavailability of transdermally delivered agents” (priority 2011, dated 2024)

Columns and labels:
[1] = rabbit, in vivo
Source text: An array of microneedles including a nanopatterned surface was formed. Initially, an array of microneedles as illustrated in FIG. 2 was formed on a silicon wafer via a photolithography process. Each needle included two oppositely placed side channels, aligned with one through-die hole in the base of the needle (not visible on FIG. 2).
Microneedles were formed according to a typical micromachining process on a silicon based wafer. The wafers were layered with resist and/or oxide layers followed by selective etching (oxide etching, DRIE etching, iso etching), resist stripping, oxide stripping, and lithography techniques (e.g., iso lithography, hole lithography, slit lithography) according to standard methods to form the array of microneedles. The microneedles were 300 microns tall and 100 microns in diameter.
Following formation of the microneedle array, a 5 μm polypropylene film including a DN2 or a polypropylene film including a DN3 pattern formed thereon as described above in Example 1 was laid over the microneedle array. The wafer/film structure was held on a heated vacuum box (3″ H2O vacuum) at elevated temperature (130° C.) for a period of one hour to gently pull the film over the surface of the microneedles while maintaining the nanopatterned surface of the film.
The transdermal patches measured 25 mm by 25 mm with a density of 784 microneedles/cm^2. Control patches were also formed that had no pattern formed on the film subsequently applied to the array of microneedles.
Two subjects were utilized for each device type.
Approximately 100 to 200 μl blood was taken via—mandibular bleeding and then centrifuged at approximately 1300 rpm for 10 minutes in a refrigerated centrifuge (set at 4° C.). The resulting serum was aspirated and transferred within 30 minutes of blood collection/centrifugation to appropriately labeled tubes. The tubes were frozen and stored in the dark at ≤−70° C. until they were analyzed for levels of Enbrel® using Human sTNF-receptor ELISA kit (R&D Systems cat #DRT200). The space time between two blood samplings on the same subject was 24 hours, to prevent unnecessary stress placed on the subject.
Following, the blood serum level gradually declined within 56 hours of attachment and then leveled off.

[2] = Organ and tissue etanercept concentration after 72 hours (sTNF RII ELISA); details: rabbit
Method: Test subjects (rabbits) were transdermally dosed with Enbrel® or were subcutaneously (SubQ) dosed with Enbrel®. […] The subcutaneous dose formulation (for the positive control) was prepared to facilitate a 2.5 mg/animal and the transdermal dose formulation was 1.875 mg/animal. Two subjects were utilized for each device type.
After 72 hours, several different organs and tissue types in each subject were examined for etanercept concentration. Specifically, organ representative samples of approximately 100 mg each were placed in labeled 50 mL conical storage tubes and stored in the dark at approximately −70° C. for preservation testing.
For analysis of Enbrel levels in tissues at the analytical laboratory, tissues were tested by use of a Quantikine® Human sTNF RII/TNFRSF1B Immunoassay (catalog no. DRT200, SRT200, PDRT200) available from R&D Systems, Inc. of Minneapolis, MN, USA. The immunoassay is a solid phase ELISA assay for determination of sTNF RII. The protein was measured against the standard provided with the kit, and etanercept was measured against a standard curve, with concentrations based on the dosage details.
All concentrations are provided as ng/g tissue. The ELISA detection mechanism could be utilized for concentrations down to about 0.6 pg/mL. Results of <MIN signify a concentration too low to be determined by the ELISA assay. Results of N/A indicate an error in the ELISA assay, with no reportable results obtained.

[3] = system: monolayer of Caco-2 cells; experiment: Caco-2 monolayer permeability (TEER) transport study of FITC-etanercept with Dynasore blocking Dynamin; format: in vitro ADME, human; details: DN2 polypropylene film, 0.1 mg/mL Dynasore and FITC-conjugated etanercept, FIG. 25
Method: The permeability effects of films patterned as described above were determined on a monolayer of Caco-2 cells (human epithelial colorectal adenocarcinoma cells). The effects of the nanostructured surfaces on transcellular transport mechanisms were investigated by blocking Dynamin, a critical protein in endocytosis, with Dynasore. Dynamin is a large GTPase protein that self-assembles into a spiral shape, constricting around budding vesicles to free them from the plasma membrane and into the cytosol for transcellular transport. The small molecule, Dynasore, is able to rapidly block the activity of Dynamin by quickly inhibiting the GTPase module of Dynamin within about 2 minutes and has been used in numerous studies for probing the mechanisms of cellular internalization and endocytosis for transcellular transport. The transport study was a transepithelial electrical resistance (TEER) study that was carried out in the presence of Dynasore to biochemically block the activity of Dynamin and preclude both clathrin and caveolin mediated endocytosis.
Films formed as described in Example 1 and Example 2 were utilized including a polypropylene (PP) film formed with a pattern designated as DN2, and a flat, nonpatterned polypropylene film. As control, a monolayer of cells with no associated film was utilized.
• 1. […] Measure fluorescence signal using a spectrofluorometer plate reader. […]

[4] = system: EpiDerm™ tissue; experiment: Etanercept delivery across EpiDerm tissue on nanopatterned film (donor/receptor chamber); format: in vitro ADME; details: 1 mg/mL, 37° C.; for increase in the amount of etanercept in the receiver chamber: EpiDerm tissue on DN2 patterned film
Source text: A device as illustrated in FIG. 28 was assembled including a film (i.e., a membrane) defining a pattern of nanostructures on a surface thereof. The film was formed as described above in Example 1 and was a polypropylene film including a DN2 pattern on the surface thereof. An EpiDerm™ tissue, a three dimensional construct organized into basal, spinous, and granular layers along a multi-layered stratum corneum available from MatTek Corporation, was located on the surface of the film as described above with regard to the monocellular layer.
A 1 mg/mL composition including the high molecular weight drug etanercept (Enbrel®) was prepared. Etanercept is a fusion protein having a molecular weight of 150 kDa. Phosphate buffered saline was located in the receptor chamber. The system was incubated at 37° C. and samples were withdrawn every five hours.
The composition was loaded in to the donor chamber on one side of an EpiDerm™ tissue either on the DN2 nanostructure film or on a polypropylene film with no nanopattern formed thereon (PPUI), and samples were withdrawn from the receptor chamber on the other side of the cell layer, as illustrated in FIG. 28. As can be see with reference to FIG. 29, following one hour, very little etanercept had passed into the receptor chamber for the control, while there was approximately a 1.7 fold increase in the amount of etanercept in the receiver chamber for the sample on the DN2 patterned film. After two hours, there was an approximately 2-fold increase for the system including the DN2 patterned film.

[5] = system: Dynamin; details: cited from earlier work

## etanercept
[1]
  absorption of etanercept compared to the flat, unstructured device: significantly increased
  bioavailability relative to the control patch: about 35 times
  blood serum level of etanercept (course): very low levels
  decrease of time to reach the maximum concentration: ~24 h
  increase in the maximum concentration: 95%
  time of peak blood serum level: approximately 48 hours
  time within which blood serum level gradually declined, then leveled off: ≤ 56 h
[2]; Subcutaneous dose 2.5 mg/animal
  etanercept concentration in kidney: 10.14 ng/g tissue
[2]; microneedle patch with Control Film (no pattern), 1.875 mg/animal
  etanercept concentration in kidney: 10.66 ng/g tissue
[2]; microneedle patch with DN3 pattern, 1.875 mg/animal
  etanercept concentration in kidney: 11.3 ng/g tissue
[3]
  effect of blocking the transcellular delivery route on etanercept transport across the layer: did not significantly decrease
[4]; after two hours
  increase in the amount of etanercept in the receiver chamber: approximately 2 fold
[4]; following one hour
  increase in the amount of etanercept in the receiver chamber: ~1.7 fold
[4]; EpiDerm tissue on polypropylene film with no nanopattern (PPUI, control), following one hour
  amount of etanercept passed into the receptor chamber: very little

## O=C(N/N=C/c1ccc(O)c(O)c1)c1cc2ccccc2cc1O [Dynasore]
[5]
  time to inhibit the GTPase module of Dynamin: ≤ 2 min
